Target: αvβ3 integrin (human) (UniProt P06756)
Test: cell-based or functional assay

Chain of αvβ3 integrin (human) (P06756 31-1048, chain 1 of 2): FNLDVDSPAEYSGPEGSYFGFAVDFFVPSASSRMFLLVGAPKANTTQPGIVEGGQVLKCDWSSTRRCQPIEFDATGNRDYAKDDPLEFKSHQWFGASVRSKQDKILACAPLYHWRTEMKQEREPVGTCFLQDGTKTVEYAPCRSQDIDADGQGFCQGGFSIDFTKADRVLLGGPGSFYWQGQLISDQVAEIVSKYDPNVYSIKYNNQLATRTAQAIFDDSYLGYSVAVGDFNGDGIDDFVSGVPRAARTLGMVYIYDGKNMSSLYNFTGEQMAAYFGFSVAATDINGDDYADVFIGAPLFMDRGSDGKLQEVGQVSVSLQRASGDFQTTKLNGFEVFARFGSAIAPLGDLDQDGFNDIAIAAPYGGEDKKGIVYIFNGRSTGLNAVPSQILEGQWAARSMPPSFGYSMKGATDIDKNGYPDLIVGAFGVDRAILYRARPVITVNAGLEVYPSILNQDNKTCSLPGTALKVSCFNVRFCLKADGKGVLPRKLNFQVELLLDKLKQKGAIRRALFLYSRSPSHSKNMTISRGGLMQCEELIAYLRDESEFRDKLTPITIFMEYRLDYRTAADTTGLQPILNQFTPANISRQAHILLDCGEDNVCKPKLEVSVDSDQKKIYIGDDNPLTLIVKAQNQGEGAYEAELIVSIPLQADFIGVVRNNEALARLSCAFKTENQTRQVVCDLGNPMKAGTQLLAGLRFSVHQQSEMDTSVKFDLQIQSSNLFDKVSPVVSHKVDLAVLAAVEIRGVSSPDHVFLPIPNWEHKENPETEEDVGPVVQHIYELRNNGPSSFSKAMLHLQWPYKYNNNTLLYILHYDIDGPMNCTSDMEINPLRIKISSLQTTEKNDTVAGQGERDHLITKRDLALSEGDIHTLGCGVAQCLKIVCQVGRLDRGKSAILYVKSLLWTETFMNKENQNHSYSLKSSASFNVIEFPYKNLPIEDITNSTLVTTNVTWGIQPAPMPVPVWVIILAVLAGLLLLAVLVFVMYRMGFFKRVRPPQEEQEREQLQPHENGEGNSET
Chain of αvβ3 integrin (human) (P05106 27-788, chain 2 of 2, further chain): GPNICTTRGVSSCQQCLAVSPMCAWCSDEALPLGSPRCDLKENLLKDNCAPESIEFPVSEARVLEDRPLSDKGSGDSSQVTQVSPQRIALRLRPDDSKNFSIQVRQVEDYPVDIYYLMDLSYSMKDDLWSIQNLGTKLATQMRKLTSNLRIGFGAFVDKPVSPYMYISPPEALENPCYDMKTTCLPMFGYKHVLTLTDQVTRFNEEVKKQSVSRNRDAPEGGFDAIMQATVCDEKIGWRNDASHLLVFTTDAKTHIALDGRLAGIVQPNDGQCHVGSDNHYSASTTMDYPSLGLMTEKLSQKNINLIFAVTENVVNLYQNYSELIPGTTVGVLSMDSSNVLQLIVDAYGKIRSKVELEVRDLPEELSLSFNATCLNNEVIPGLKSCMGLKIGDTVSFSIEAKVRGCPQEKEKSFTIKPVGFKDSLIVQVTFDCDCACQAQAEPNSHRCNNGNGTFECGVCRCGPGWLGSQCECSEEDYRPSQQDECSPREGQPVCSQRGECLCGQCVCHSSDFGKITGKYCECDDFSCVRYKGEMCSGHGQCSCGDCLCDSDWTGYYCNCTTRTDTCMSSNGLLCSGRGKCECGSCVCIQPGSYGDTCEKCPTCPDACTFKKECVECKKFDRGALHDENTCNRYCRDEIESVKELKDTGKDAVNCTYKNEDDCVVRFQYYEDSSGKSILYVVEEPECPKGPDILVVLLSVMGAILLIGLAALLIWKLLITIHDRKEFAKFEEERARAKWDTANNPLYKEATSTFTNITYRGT

**Q.** “Regenin (regenin protein that expresses four of the fourth fas-1 domains of βig-h3)” was tested. Which 70%-inhibition of tube formation (HUVECs on Matrigel) did it give?
**A.** 5 µM

**Q.** What about the half-inhibition of migration toward vitronectin (HUVECs, transwell) of the same substance?
**A.** 5 µM

From US20070167369A1, “Novel use of isolated polypeptide comprising four FAS-1 domains, EM1 domain and RGD motif” (KYUNGPOOK NATIONAL UNIVERSITY INDUSTRY-ACADEMIC COOPERATION …, priority 2004, published 2007)
